From article PMC8661717 (Protein Science : A Publication of the Protein Society, 2021)

How the values were obtained:
Details in all cases: both partners purified
[1] = molecular target: T1, Truncated human primosome (Pol α 334-1462; B subunit 149-598; PriS 1-420; PriL 1-509) (human, UniProt P09884 334-1462; Q14181 149-598; P49642 1-420; P49643 1-509); assay: cryo-EM structure
T1 construct: also called truncated primosome; Pol α–primase

[2] = molecular target: T2, Pol α catalytic subunit (334-1462), as subunit of the truncated human primosome (human, UniProt P09884 334-1462); assay: cryo-EM structure
T2 construct: also called DNA polymerase α; catalytic subunit of Pol α
T2 sequence (looked up): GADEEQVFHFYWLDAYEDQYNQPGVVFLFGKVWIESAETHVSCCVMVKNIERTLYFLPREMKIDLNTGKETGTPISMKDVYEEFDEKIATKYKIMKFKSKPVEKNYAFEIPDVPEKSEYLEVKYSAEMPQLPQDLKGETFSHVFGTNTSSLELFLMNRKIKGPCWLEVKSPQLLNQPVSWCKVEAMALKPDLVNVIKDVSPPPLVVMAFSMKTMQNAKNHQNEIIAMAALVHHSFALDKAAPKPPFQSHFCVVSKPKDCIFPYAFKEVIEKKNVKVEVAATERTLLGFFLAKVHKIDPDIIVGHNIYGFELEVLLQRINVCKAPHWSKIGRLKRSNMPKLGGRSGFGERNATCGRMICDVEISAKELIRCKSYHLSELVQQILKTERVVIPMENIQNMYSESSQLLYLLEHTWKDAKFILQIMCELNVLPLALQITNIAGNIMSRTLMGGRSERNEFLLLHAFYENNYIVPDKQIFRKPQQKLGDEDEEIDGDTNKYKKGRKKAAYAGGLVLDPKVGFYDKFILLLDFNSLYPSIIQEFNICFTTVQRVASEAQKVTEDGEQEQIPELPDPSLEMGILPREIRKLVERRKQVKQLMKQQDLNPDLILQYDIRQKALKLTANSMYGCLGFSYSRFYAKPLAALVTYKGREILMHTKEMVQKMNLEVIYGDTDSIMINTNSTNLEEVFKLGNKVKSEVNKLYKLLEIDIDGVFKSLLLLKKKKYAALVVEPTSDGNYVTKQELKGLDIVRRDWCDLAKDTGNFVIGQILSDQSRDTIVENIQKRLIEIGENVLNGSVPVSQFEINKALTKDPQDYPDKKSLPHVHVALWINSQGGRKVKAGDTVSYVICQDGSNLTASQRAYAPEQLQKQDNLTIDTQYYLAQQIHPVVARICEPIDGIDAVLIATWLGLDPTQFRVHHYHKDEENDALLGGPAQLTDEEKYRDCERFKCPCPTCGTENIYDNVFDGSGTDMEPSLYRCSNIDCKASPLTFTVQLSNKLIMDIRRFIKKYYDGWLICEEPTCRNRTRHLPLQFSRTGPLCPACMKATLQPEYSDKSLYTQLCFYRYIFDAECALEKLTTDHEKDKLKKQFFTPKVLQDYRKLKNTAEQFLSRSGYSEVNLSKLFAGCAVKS

[3] = molecular target: T1, Truncated human primosome (Pol α …); assay: pull-down
[4] = molecular target: T3, Full-length human primosome (DNA polymerase α–primase complex) (human, UniProt P09884 1-1462; Q14181 1-598; P49642 1-420; P49643 1-509); assay: pull-down
T3 construct: also called Pol α–primase; full-length primosome
T3 sequence (Q14181 whole entry, chain 2 of 3): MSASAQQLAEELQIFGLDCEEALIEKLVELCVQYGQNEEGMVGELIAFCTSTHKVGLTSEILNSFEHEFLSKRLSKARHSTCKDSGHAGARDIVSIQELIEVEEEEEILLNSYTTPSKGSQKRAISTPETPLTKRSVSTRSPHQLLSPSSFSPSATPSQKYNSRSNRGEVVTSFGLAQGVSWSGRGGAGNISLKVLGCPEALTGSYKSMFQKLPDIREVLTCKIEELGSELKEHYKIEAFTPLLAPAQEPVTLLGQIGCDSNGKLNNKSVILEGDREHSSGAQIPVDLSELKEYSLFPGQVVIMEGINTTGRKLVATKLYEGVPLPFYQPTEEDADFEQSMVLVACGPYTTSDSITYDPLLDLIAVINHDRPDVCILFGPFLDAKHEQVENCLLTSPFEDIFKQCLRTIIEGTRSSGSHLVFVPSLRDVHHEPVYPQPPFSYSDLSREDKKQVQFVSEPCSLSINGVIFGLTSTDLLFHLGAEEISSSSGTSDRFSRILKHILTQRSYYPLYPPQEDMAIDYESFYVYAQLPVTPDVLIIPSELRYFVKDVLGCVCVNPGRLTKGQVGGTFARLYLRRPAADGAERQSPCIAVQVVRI
T3 sequence (P49642 whole entry, chain 3 of 3): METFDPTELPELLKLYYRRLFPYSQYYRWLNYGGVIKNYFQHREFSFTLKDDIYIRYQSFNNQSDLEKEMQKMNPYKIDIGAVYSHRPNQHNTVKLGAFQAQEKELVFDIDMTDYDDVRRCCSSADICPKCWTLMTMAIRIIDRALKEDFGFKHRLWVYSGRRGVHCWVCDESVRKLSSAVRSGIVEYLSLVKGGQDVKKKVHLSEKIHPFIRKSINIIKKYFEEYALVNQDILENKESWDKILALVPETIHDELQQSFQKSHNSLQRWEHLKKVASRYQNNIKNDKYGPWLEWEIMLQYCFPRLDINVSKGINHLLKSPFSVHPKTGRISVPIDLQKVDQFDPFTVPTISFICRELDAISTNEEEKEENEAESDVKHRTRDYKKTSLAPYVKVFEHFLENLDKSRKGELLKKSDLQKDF
T3 sequence (P49643 whole entry, chain 4 of 3): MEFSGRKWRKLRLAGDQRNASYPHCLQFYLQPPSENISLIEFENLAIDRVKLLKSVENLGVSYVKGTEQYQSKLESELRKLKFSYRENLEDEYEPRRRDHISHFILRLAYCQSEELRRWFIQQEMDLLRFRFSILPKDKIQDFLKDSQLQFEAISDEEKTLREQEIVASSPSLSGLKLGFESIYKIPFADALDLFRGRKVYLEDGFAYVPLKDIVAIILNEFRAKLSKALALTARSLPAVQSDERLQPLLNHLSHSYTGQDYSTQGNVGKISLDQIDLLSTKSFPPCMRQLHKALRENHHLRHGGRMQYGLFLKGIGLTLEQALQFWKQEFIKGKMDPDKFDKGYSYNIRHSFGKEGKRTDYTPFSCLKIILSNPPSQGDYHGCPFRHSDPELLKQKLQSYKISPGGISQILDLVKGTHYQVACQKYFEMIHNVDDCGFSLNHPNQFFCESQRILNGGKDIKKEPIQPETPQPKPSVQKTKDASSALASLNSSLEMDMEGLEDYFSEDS

T1 sequence (Q14181 149-598, chain 2 of 3): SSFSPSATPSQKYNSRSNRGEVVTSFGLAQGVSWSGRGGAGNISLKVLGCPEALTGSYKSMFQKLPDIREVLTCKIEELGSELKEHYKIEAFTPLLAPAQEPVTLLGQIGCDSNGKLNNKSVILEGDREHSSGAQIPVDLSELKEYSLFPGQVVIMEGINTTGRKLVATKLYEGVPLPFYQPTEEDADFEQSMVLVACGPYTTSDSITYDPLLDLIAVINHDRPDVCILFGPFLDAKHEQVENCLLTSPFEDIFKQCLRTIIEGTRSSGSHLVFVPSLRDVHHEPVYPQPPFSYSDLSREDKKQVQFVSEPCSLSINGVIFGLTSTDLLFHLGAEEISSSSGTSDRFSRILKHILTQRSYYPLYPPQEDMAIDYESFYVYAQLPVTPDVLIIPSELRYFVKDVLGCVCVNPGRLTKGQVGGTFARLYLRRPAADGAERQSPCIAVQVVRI
T1 sequence (P49642 whole entry, chain 3 of 3, the tested form may be a part): as the sequence (P49642 whole entry, chain 3 of 3) above
T1 sequence (P49643 whole entry, chain 4 of 3, the tested form may be a part): as the sequence (P49643 whole entry, chain 4 of 3) above

B1: SARS-CoV nsp1 (13-127), His6-MBP tag cleaved (domain or fragment)
chain: HVQLSLPVLQVRDVLVRGFGDSVEEALSEAREHLKNGTCGLVELEKGVLPQLEQPYVFIKRSDALSTNHGHKVVELVAEMDGIQYGRSGITLGVLVPHVGETPIAYRNVLLRKNG
B1: binds [1]; binds [2].

B2: His6-MBP-tagged SARS-CoV nsp1 middle domain (13-127) (domain or fragment)
chain: B1 chain
B2: binds [3].

B3: His6-MBP-tagged SARS-CoV nonstructural protein 1 (nsp1), full length (natural protein)
chain: MESLVLGVNEKTHVQLSLPVLQVRDVLVRGFGDSVEEALSEAREHLKNGTCGLVELEKGVLPQLEQPYVFIKRSDALSTNHGHKVVELVAEMDGIQYGRSGITLGVLVPHVGETPIAYRNVLLRKNGNKGAGGHSYGIDLKSYDLGDELGTDPIEDYEQNWNTKHGSGALRELTRELNGG
B3: binds [3]; binds [4].

B4: His6-MBP-tagged SARS-CoV-2 nsp1 middle domain (13-127) (domain or fragment)
chain: HVQLSLPVLQVRDVLVRGFGDSVEEVLSEARQHLKDGTCGLVEVEKGVLPQLEQPYVFIKRSDARTAPHGHVMVELVAELEGIQYGRSGETLGVLVPHVGEIPVAYRKVLLRKNG
B4: binds [3].
